Data reported in patent publication US5731419.

Target: glutathione reductase (Type III, Sigma)

remaining glutathione reductase activity after denaturation (percent of control) (% of control activity (-20° C., 1 µg/ml))	remaining glutathione reductase activity after denaturation (percent of control) (scale: % of control activity)	Substance
42	–	WCOR410 protein, expressed from pET22b and purified with the His*Bind buffer kit
–	71	Bovine serum albumin (Pharmacia, DNase free 10 mg/ml) (from UniProt P02769)
40	–	Wcs120 protein (50 kDa protein), expressed in E. coli from pET11a and purified
